As usually defined, the Km is the concentration of substrate that gives half-maximal velocity. A word on the kcat: it is the maximal rate divided by the concentration of active sites. Usually kcat/Km stands for the turnover number divided by the Michaelis constant.

Changes are numbered by the printed parent chain. Numbers in names are those of the source.

One series addresses T1, PolIV (Escherichia coli, UniProt Q47155).
T1 sequence (Q47155 1-351): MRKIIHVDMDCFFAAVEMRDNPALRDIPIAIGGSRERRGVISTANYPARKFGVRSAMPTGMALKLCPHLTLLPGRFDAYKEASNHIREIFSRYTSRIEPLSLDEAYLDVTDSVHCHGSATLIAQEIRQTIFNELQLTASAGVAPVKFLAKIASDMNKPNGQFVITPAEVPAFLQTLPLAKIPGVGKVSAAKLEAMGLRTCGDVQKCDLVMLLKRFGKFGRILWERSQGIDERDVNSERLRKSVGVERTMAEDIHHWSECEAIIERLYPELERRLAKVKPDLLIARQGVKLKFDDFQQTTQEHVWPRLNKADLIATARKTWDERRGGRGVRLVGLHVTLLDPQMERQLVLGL
As to the kind of experiment: primer extension, gel. The class given is biochemical. As to conditions: 6FAM primer/template, 2.5 mM MnCl2, pH 8.0, 37°C.

Substrate in series [1]: Nc1ccn([C@@H]2O[C@H](COP(=O)(O)OP(=O)(O)OP(=O)(O)O)[C@@H](O)[C@H]2O)c(=O)n1
Description: primer extension, Lineweaver-Burk. The class given is biochemical, Mycolicibacterium smegmatis. The following applies: 6FAM 15mer primer/50mer template, 2.5 mM MnCl2, pH 8.0, 37°C.

Take `Nc1ccn([C@H]2C[C@H](O)[C@@H](COP(=O)(O)OP(=O)(O)OP(=O)(O)O)O2)c(=O)n1` [dCTP]: the “primer extension, gel” value at PolIV is recorded as “mutations did not show a significant difference in the ability of PolIV to incorporate dCTP”.

B1: MsDpo4 (Mycolicibacterium smegmatis MC2 155) (protein)
chain: MTKWVLHVDLDQFLASVELRRRPDLRGQPVIVGGSGDPSEPRKVVTCASYEAREFGVHAGMPLRAAARRCPDATFLPSDPAAYDEASEQVMGLLRDLGHPLEVWGWDEAYLGADLPDESDPVEVAERIRTVVAAETGLSCSVGISDNKQRAKVATGFAKPAGIYVLTEANWMTVMGDRPPDALWGVGPKTTKKLAAMGITTVADLAVTDPSVLTTAFGPSTGLWLLLLAKGGGDTEVSSEPWVPRSRSHVVTFPQDLTERREMDSAVRDLALQTLAEIVEQGRIVTRVAVTVRTSTFYTRTKIRKLPAPSTDAGQIVDTALAVLDQFELDRPVRLLGVRLELAMDDVPRPAVTAGT
In the case of B1, in series [1], the Km is 55.3 ± 4.0 µM, the kcat was found to be 0.011 ± 0.00117 s⁻¹ and the kcat/Km is 167 ± 16.7 M⁻¹ s⁻¹.

B2: MsDpo4 (Mycolicibacterium smegmatis MC2 155; L14Y) (protein)
chain: B1 chain with L14Y
For B2, in series [1], the Km came to 59.54 ± 13.4 µM, the kcat was 0.00167 ± 0.000167 s⁻¹ and the kcat/Km amounted to 26.7 ± 5 M⁻¹ s⁻¹.

Source of the values: PMC6846668 (Nucleic Acids Research, 2019).
